Km and kcat data for one substance are collected here from patent US20170137855A1, “RECOMBINANT CELLS AND METHODS FOR NONPHOSPHORYLATIVE METABOLISM” (REGENTS OF THE UNIVERSITY OF MINNESOTA, priority 2015, published 2017).

One may read the Km as the concentration of substrate that gives half-maximal velocity. The kcat is the maximal rate divided by the concentration of active sites.

In the series the test system is O=CCCC=O. In words: Alcohol dehydrogenase YqhD, coupled assay, NADPH consumption. The class given is biochemical, E. coli. The settings on record: other: coupled assay, substrate from 0.1-10 mM L-arabonate, 1 mM NADPH, pH 7.5, 10 nM YqhD, 30.0 °C. As for the experimental part:
2-Ketoacid decarboxylase (Kivd) and alcohol dehydrogenase (YqhD): The decarboxylase activity of Kivd was measured by a coupled enzymatic assay with AraC, AraD, and YqhD (Zhang et al., 2011. ChemSusChem 4:1068-1070). Excess AraC, AraD, and YqhD was used and the oxidation of NADPH was monitored at 340 nm. The assay mixture contained 1 mM NADPH, 1 μM AraC, 1 μM AraD, and 100 nM YqhD and 0.1-10 mM L-arabonate in assay buffer (100 mM Tris-HCl buffer, pH 7.5, 5 mM MgSO4, 0.5 mM ThDP) with a total volume of 0.1 ml. The mixture was incubated at 30° C. for one hour and 10 nM Kivd was added. The dehydrogenase activity of YqhD was assayed according to NADPH initial consumption rates in a coupled assay. The assay mixture contained 1 mM NADPH, 100 nM Kivd, 1 μM AraC, 1 μM AraD, and 0.1-10 mM L-arabonate in 100 μl of 100 mM Tris-HCl buffer (pH 7.5) with 5 mM MgSO4. The mixture was first incubated at 30° C. for one hour. Afterwards, 10 nM YqhD was added and the NADPH consumption rate was monitored.

In the case of “E. coli alcohol dehydrogenase YqhD (Escherichia coli K-12)”, the Km is 1900 µM and the kcat is 45.0 s⁻¹.
